Assay results as given in US20190382486A1 (Pfizer, published 2019).

T1: CD3ed (CD3 epsilon/delta fusion protein) (human)
T1 construct: Expressed in HEK293 and purified on His60 resin and by SEC; also called soluble human CD3ed antigen; hCD3ed
T1 chain: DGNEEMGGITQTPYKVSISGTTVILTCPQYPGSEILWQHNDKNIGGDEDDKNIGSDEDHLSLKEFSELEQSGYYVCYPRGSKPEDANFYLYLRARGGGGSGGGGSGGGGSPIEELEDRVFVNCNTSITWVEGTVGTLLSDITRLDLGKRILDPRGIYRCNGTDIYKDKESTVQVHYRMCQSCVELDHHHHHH


Tests used:
[1] = target: T1, CD3ed (CD3 epsilon/delta fusion protein); assay: SPR, recombinant human CD3
[2] = target: T2, human CD3 epsilon subunit (CD3e), as cell surface CD3 on Jurkat cells and on naive human T cells (human, UniProt P07766 23-207); assay: cell-based or functional assay
[3] = target: T2, human CD3 epsilon subunit (CD3e), as …; assay: flow cytometry titration on naive human T cells (PE-A Geo Mean against Ab in nM); Kd printed beside the legend
[4] = target: T2, human CD3 epsilon subunit (CD3e), as …; assay: FACS on Jurkat cells expressing CD3, monovalent IgG
Description: All the mutants were generated as monovalent IgG antibodies using standard transient HEK293 expression followed by purification using Protein A column. The resulting clones were tested for binding to Jurkat cells expressing CD3 using FACS and self-association potential using AC-SINS as described above in Example 7. As shown in Table 16, five molecules with improved epivax score and reduced T-cell epitopes and retained affinity to CD3 were chosen to move forward and test in diabody-Fc format. The 2B5v6 variants with improved epivax scores were compared to the parental 2B5v6.
Target sequence in this assay (P07766 23-207 limits assumed): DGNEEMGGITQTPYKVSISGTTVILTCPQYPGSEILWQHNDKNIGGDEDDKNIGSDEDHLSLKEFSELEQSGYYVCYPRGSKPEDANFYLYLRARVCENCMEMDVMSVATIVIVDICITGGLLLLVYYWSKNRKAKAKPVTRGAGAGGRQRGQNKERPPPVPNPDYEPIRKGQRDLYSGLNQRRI

| Binder | Kd [1] [nM] | EC50 [4] [nM] | In vitro Cytotoxicity [2] [nM] | also measured |
| --- | --- | --- | --- | --- |
| GUCY2C-1679 bispecific antibody (bispecific antibody, Bispecific diabody-Fc; also called GUCY2c bispecific with CD3 variant 2B5-1040) chain 1: DIQLTQSPSSLSASVGDRVTITCRASESVDYYGSSLLQWYQQKPGKAPKLLIYAASKLASGVPSRFSGSGSGTDFTLTISSLQPEDFATYYCQQTRKAYTFGQGTKLEIKGGGSGGGGEVQLVESGGGLVQPGGSLRLSCAASGFTFSDYYMTWVRQAPGKGLEWVAFIRNQARGYTSDHNPSVKGRFTISRDNAKNSLYLQMNSLRAEDTAVYYCARDRPSYYVLDYWGQGTTVTVSSGCPPCPAPEAAGAPSVFLFPPKPKDTLMISRTPEVTCVVVDVSHEDPEVKFNWYVDGVEVHNAKTKPREEQYNSTYRVVSVLTVLHQDWLNGKEYKCKVSNKALPAPIEKTISKAKGQPREPQVCTLPPSREEMTKNQVSLWCLVKGFYPSDIAVEWESNGQPENNYKTTPPVLDSDGSFFLYSKLTVDKSRWQQGNVFSCSVMHEALHNHYTQKSLSLSPG chain 2: DIQMTQSPSSLSASVGDRVTITCTSSQSLFNVRSGKNYLAWYQQKPGKAPKLLIYWASDRESGVPSRFSGSGSGTDFTLTISSLQPEDFATYYCKQSYDLFTFGGGTKVEIKGGGGSGGGGEVQLVESGGGLVQPGGSLRLSCAASGFTFSSYWMHWVRQAPGKGLEWIGEIKPSNELTNVHEKFKDRFTISVDKAKNSAYLQMNSLRAEDTAVYYCTRTITTTEGYWFFDVWGQGTLVTVSSGCPPCPAPEAAGAPSVFLFPPKPKDTLMISRTPEVTCVVVDVSHEDPEVKFNWYVDGVEVHNAKTKPREEQYNSTYRVVSVLTVLHQDWLNGKEYKCKVSNKALPAPIEKTISKAKGQPREPQVYTLPPCREEMTKNQVSLSCAVKGFYPSDIAVEWESNGQPENNYKTTPPVLDSDGSFFLVSKLTVDKSRWQQGNVFSCSVMHEALHNHYTQKSLSLSPG | 72 | – | 0.194 | – |
| GUCY2c-H2B4 bispecific antibody (bispecific antibody, human IgG1, Bispecific diabody-Fc (knob-in-hole, effector null human IgG1 Fc)) chain 1: DIQLTQSPSSLSASVGDRVTITCRASESVDYYGTSLMQWYQQKPGKPPKLLIYAASNVESGVPSRFSGSGSGTDFTLTISSLQPEDFATYYCQQTRKVYTFGQGTKLEIKGGGSGGGGEVQLVESGGGLVQPGGSLRLSCAASGFTFSDYYMTWVRQAPGKGLEWVAFIRNRARGYTSDHNPSVKGRFTISRDNAKNSLYLQMNSLRAEDTAVYYCARDRPSYYVLDYWGQGTTVTVSSGCPPCPAPEAAGAPSVFLFPPKPKDTLMISRTPEVTCVVVDVSHEDPEVKFNWYVDGVEVHNAKTKPREEQYNSTYRVVSVLTVLHQDWLNGKEYKCKVSNKALPAPIEKTISKAKGQPREPQVCTLPPSREEMTKNQVSLWCLVKGFYPSDIAVEWESNGQPENNYKTTPPVLDSDGSFFLYSKLTVDKSRWQQGNVFSCSVMHEALHNHYTQKSLSLSPG chain 2: DIVMTQSPDSLAVSLGERATINCKSSQSLFNVRSRKNYLAWYQQKPGQPPKLLISWASTRESGVPDRFSGSGSGTDFTLTISSLQAEDVAVYYCKQSYDLFTFGSGTKLEIKGGGSGGGGEVQLVESGGGLVQPGGSLRLSCAASGYTFTSYWMHWVRQAPGKGLEWIGEIKPSNGLTNYIEKFKNRFTISVDKAKNSAYLQMNSLRAEDTAVYYCTRTITTTEGYWFFDVWGQGTLVTVSSGCPPCPAPEAAGAPSVFLFPPKPKDTLMISRTPEVTCVVVDVSHEDPEVKFNWYVDGVEVHNAKTKPREEQYNSTYRVVSVLTVLHQDWLNGKEYKCKVSNKALPAPIEKTISKAKGQPREPQVYTLPPCREEMTKNQVSLSCAVKGFYPSDIAVEWESNGQPENNYKTTPPVLDSDGSFFLVSKLTVDKSRWQQGNVFSCSVMHEALHNHYTQKSLSLSPG | – | – | – | Kd [3]: 8.18 nM |
| 2B5v6-0517 (antibody, V domains shown, Tested as a monovalent IgG; also called 2B5-0517) VH: EVQLVESGGGLVQPGGSLRLSCAASGFTFSDYYMTWVRQAPGKGLEWVAFIRNQARGYTSDHQPSVKGRFTISRDNAKNSLYLQMNSLRAEDTAVYYCARDRPSYYVLDYWGQGTTVTVSS VL: DIQMTQSPSSLSASVGDRVTITCTSSQSLFNVRSGKNYLAWYQQKPGKAPKLLIYWASTRESGVPSRFSGSGSGTDFTLTISSLQPEDFATYYCKQSYDLFTFGGGTKVEIK | – | 9.9 | – | – |
| 2B5v6-0533 (antibody, V domains shown, Tested as a monovalent IgG; also called 2B5-0533) VH: EVQLVESGGGLVQPGGSLRLSCAASGFTFSDYYMTWVRQAPGKGLEWVAFIRNQARGYTSDHNPSVKGRFTISRDNAKNSLYLQMNSLRAEDTAVYYCARDRPSYYVLDYWGQGTTVTVSS VL: DIQMTQSPSSLSASVGDRVTITCTSSQSLFNVRSGKNYLAWYQQKPGKAPKLLIYWASTRESGVPSRFSGSGSGTDFTLTISSLQPEDFATYYCKQSYDLFTFGGGTKVEIK | – | 6.1 | – | – |
| 2B5v6-0522 (antibody, V domains shown, Tested as a monovalent IgG; also called 2B5-0522) VH: EVQLVESGGGLVQPGGSLRLSCAASGFTFSDYYMTWVRQAPGKGLEWVAFIRNQARGYTSDHQPSVKGRFTISRDNAKNSLYLQMNSLRAEDTAVYYCARDRPSYYVLDYWGQGTTVTVSS VL: DIQMTQSPSSLSASVGDRVTITCTSSQSLFNVRSQKNYLAWYQQKPGKAPKLLIYWASDRESGVPSRFSGSGSGTDFTLTISSLQPEDFATYYCKQSYDLFTFGGGTKVEIK | – | 8.6 | – | – |
| 2B5v6-0538 (antibody, V domains shown, Tested as a monovalent IgG; also called 2B5-0538) VH: EVQLVESGGGLVQPGGSLRLSCAASGFTFSDYYMTWVRQAPGKGLEWVAFIRNQARGYTSDHNPSVKGRFTISRDNAKNSLYLQMNSLRAEDTAVYYCARDRPSYYVLDYWGQGTTVTVSS VL: DIQMTQSPSSLSASVGDRVTITCTSSQSLFNVRSQKNYLAWYQQKPGKAPKLLIYWASDRESGVPSRFSGSGSGTDFTLTISSLQPEDFATYYCKQSYDLFTFGGGTKVEIK | – | 9.2 | – | – |

The next lines start with results.

| Kd [1] [nM] | EC50 [4] [nM] | Binder | In vitro Cytotoxicity [2] [nM] | also measured |
| --- | --- | --- | --- | --- |
| 78.6 | – | GUCY2C-1680 bispecific antibody (bispecific antibody, Bispecific diabody-Fc; also called GUCY2c bispecific with CD3 variant 2B5-1039) chain 1: DIQLTQSPSSLSASVGDRVTITCRASESVDYYGSSLLQWYQQKPGKAPKLLIYAASKLASGVPSRFSGSGSGTDFTLTISSLQPEDFATYYCQQTRKAYTFGQGTKLEIKGGGSGGGGEVQLVESGGGLVQPGGSLRLSCAASGFTFSDYYMTWVRQAPGKGLEWVAFIRNQARGYTSDHNPSVKGRFTISRDNAKNSLYLQMNSLRAEDTAVYYCARDRPSYYVLDYWGQGTTVTVSSGCPPCPAPEAAGAPSVFLFPPKPKDTLMISRTPEVTCVVVDVSHEDPEVKFNWYVDGVEVHNAKTKPREEQYNSTYRVVSVLTVLHQDWLNGKEYKCKVSNKALPAPIEKTISKAKGQPREPQVCTLPPSREEMTKNQVSLWCLVKGFYPSDIAVEWESNGQPENNYKTTPPVLDSDGSFFLYSKLTVDKSRWQQGNVFSCSVMHEALHNHYTQKSLSLSPG chain 2: DIQMTQSPSSLSASVGDRVTITCTSSESLFNVRSGKNYLAWYQQKPGKAPKLLIYWASDRESGVPSRFSGSGSGTDFTLTISSLQPEDFATYYCKQSYDLFTFGGGTKVEIKGGGGSGGGGEVQLVESGGGLVQPGGSLRLSCAASGFTFSSYWMHWVRQAPGKGLEWIGEIKPSNELTNVHEKFKDRFTISVDKAKNSAYLQMNSLRAEDTAVYYCTRTITTTEGYWFFDVWGQGTLVTVSSGCPPCPAPEAAGAPSVFLFPPKPKDTLMISRTPEVTCVVVDVSHEDPEVKFNWYVDGVEVHNAKTKPREEQYNSTYRVVSVLTVLHQDWLNGKEYKCKVSNKALPAPIEKTISKAKGQPREPQVYTLPPCREEMTKNQVSLSCAVKGFYPSDIAVEWESNGQPENNYKTTPPVLDSDGSFFLVSKLTVDKSRWQQGNVFSCSVMHEALHNHYTQKSLSLSPG | 0.385 | – |
| 63.5 | – | GUCY2C-1678 bispecific antibody (bispecific antibody, Bispecific diabody-Fc; also called GUCY2c bispecific with CD3 variant 2B5-1038) chain 1: DIQLTQSPSSLSASVGDRVTITCRASESVDYYGSSLLQWYQQKPGKAPKLLIYAASKLASGVPSRFSGSGSGTDFTLTISSLQPEDFATYYCQQTRKAYTFGQGTKLEIKGGGSGGGGEVQLVESGGGLVQPGGSLRLSCAASGFTFSDYYMTWVRQAPGKGLEWVAFIRNQARGYTSDHNPSVKGRFTISRDNAKNSLYLQMNSLRAEDTAVYYCARDRPSYYVLDYWGQGTTVTVSSGCPPCPAPEAAGAPSVFLFPPKPKDTLMISRTPEVTCVVVDVSHEDPEVKFNWYVDGVEVHNAKTKPREEQYNSTYRVVSVLTVLHQDWLNGKEYKCKVSNKALPAPIEKTISKAKGQPREPQVCTLPPSREEMTKNQVSLWCLVKGFYPSDIAVEWESNGQPENNYKTTPPVLDSDGSFFLYSKLTVDKSRWQQGNVFSCSVMHEALHNHYTQKSLSLSPG chain 2: DIQMTQSPSSLSASVGDRVTITCTSDQSLFNVRSGKNYLAWYQQKPGKAPKLLIYWASDRESGVPSRFSGSGSGTDFTLTISSLQPEDFATYYCKQSYDLFTFGGGTKVEIKGGGGSGGGGEVQLVESGGGLVQPGGSLRLSCAASGFTFSSYWMHWVRQAPGKGLEWIGEIKPSNELTNVHEKFKDRFTISVDKAKNSAYLQMNSLRAEDTAVYYCTRTITTTEGYWFFDVWGQGTLVTVSSGCPPCPAPEAAGAPSVFLFPPKPKDTLMISRTPEVTCVVVDVSHEDPEVKFNWYVDGVEVHNAKTKPREEQYNSTYRVVSVLTVLHQDWLNGKEYKCKVSNKALPAPIEKTISKAKGQPREPQVYTLPPCREEMTKNQVSLSCAVKGFYPSDIAVEWESNGQPENNYKTTPPVLDSDGSFFLVSKLTVDKSRWQQGNVFSCSVMHEALHNHYTQKSLSLSPG | 0.247 | – |
